From publication PMC10477244

Tests used:
[1] = target: T1, SARS-CoV-2 spike RBD (BEI NR-53800) (SARS-CoV-2 Wuhan-Hu-1, UniProt P0DTC2 319-541); experiment: ELISA-type bead assay (SA-HRP/TMB)
[2] = target: T1, SARS-CoV-2 spike RBD (BEI NR-53800); experiment: ELISA-type bead assay (SA-HRP/TMB); 0.3 uM aptamer
[3] = target: T1, SARS-CoV-2 spike RBD (BEI NR-53800); experiment: fluorescence binding, carbon-dot aptamer on Ni-NTA@RBD

B1: aptamer U (Apt@U2) (ssDNA)
DNA: GGTATTGAGGGTCGCATCGTAATAGCGCATGTTGTGAGGCGGCGGAGTCATGTCGTGGGATGGCTCTAACTCTCCTCT
- binding result [1]: binds

B2: aptamer S (Apt@S2) (ssDNA)
DNA: GGTATTGAGGGTCGCATCGAAACAGGGCGTGATACGACGCGACGGCGTACTGTGGTGGGATGGCTCTAACTCTCCTCT
- binding result [2]: binds

B3: aptamer W (Apt@W2) (ssDNA)
DNA: GGTATTGAGGGTCGCATCGACACCGGGAGTGATACGTCGCGAGCACGTACTGTGTTGGGATGGCTCTAACTCTCCTCT
- binding result [1]: binds

B4: aptamer T (Apt@T2) (ssDNA)
DNA: GGTATTGAGGGTCGCATCGTAATAGCGCATGTTGTGAGGCAGGCGCGAATCAGCTCGTGAGATGGCTCTAACTCTCCTCT
- binding result [2]: binds

B5: aptamer R (Apt@R2) (ssDNA)
DNA: GGTATTGAGGGTCGCATCGTTACTGGACCAAACAGCACAAAGGACGCCCATAAACCCGGATGGCTCTAACTCTCCTCT
- Kd [3]: 125 nM
